Measurements as given in patent US20110223176A1 (AbbVie / Abbott, published 2011).

Assays:
[1] = target: T1, human BSG2 (basigin isoform 2) on the cell surface (human, UniProt P35613 140-385); assay: cell-based ECL (MSD) binding on whole cells expressing human BSG2
T1 construct: Presented on stably transfected BAF3 cells or endogenously on human tumor cell lines (HepG2, MiaPaCa-2, DoHH-2); also called hBSG2; CD147
T1 sequence: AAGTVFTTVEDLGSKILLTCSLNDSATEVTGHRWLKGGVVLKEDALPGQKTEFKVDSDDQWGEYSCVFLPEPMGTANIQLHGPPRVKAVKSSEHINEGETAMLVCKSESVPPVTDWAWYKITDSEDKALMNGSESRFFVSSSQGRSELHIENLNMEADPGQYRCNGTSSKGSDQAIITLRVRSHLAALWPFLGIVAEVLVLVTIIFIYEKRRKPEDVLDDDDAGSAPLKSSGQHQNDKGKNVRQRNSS

[2] = target: T1, human BSG2 (basigin isoform 2) on the …; assay: cell-based or functional assay
[3] = target: T1, human BSG2 (basigin isoform 2) on the …; assay: cell-based or functional assay; remark: listed apart in the source
[4] = target: T2, cynomolgus monkey BSG2 extracellular domain (cynomolgus monkey); assay: SPR (Biacore), mAb captured by anti-mouse Fc, BSG2 ECD injected, 25 C
T2 construct: extracellular domain; also called Cynomolgus BSG2 ECD
Procedure: (§1) Binding of BSG2 antibodies to a purified recombinant BSG2 extracellular domain (ECD) was determined by surface plasmon resonance-based measurements with a Biacore® instrument (either a Biacore 2000, Biacore 3000, or Biacore T100; GE Healthcare, Piscataway, N.J., US). The assay format for mAb affinity analysis was Fc-based capture via immobilized anti-Fc IgG. A standard amine coupling protocol was employed to immobilize Fc-specific IgG via primary amines to the carboxy-methyl (CM) dextran surface of CMS sensorchips. For the study of mouse anti-human BSG2 mAbs, anti-mouse Fc was used as the immobilized capture reagent. An automated protocol, available on the Biacore 2000, was used to immobilize 8000-10000RU of capture reagent in all 4 flowcells of the sensorchip. Binding was recorded as a function of time and kinetic rate constants were calculated. In this assay, on-rates as fast as 10⁷M⁻¹ s⁻¹ and off-rates as slow as 10⁻⁵ s⁻¹ can be measured.
(§2) Briefly, the CM-dextran surfaces were activated by freshly prepared 1:1 […] 3-(N,N-dimethylamino)propyl-N-ethylcarbodiimide (EDC). Then the anti-Fc IgG capture reagent (20 μg/ml in 10 mM sodium acetate, pH 4.5) was applied to the surface followed by deactivation of the surface and blocking of the residual reactive sites with 1M ethanolamine (pH 8.5). The running buffer employed was PBS-PB [1×PBS (Sigma P3813), pH 7.4, 0.005% P20 surfactant, 0.1 mg/ml BSA (Sigma-A7906)] and the assay temperature was 25° C. All reagents were diluted into running buffer to the specified concentrations. Each experimental cycle consisted of the following steps: (1) anti-BSG2 mAbs at 0.5 to 1 μg/ml were captured in flowcells 2, 3 or 4 to a level of 100-120RU. All measurements were referenced against flowcell 1 which had no captured anti-BSG2 mAb; (2) human BSG2 ECD was injected through all 4 flowcells, 240 μl at 80 μl/min. After the antigen injection, dissociation was monitored for 600 seconds at 80 μl/min; and (3) the anti-Fc capture surface was regenerated with 10 mM glycine, pH 1.5.
(§3) The BSG2 antibody binding affinities were determined by the BIACORE technology as described in Example 1.2. Table 10 represents the antibody binding kinetics against human and cynomolgus monkey BSG2 extracellular domain (ECD).

[5] = target: T3, purified recombinant human BSG2 extracellular domain (human, UniProt P35613 22-325); assay: as above
T3 construct: also called Human BSG2 ECD
T3 sequence: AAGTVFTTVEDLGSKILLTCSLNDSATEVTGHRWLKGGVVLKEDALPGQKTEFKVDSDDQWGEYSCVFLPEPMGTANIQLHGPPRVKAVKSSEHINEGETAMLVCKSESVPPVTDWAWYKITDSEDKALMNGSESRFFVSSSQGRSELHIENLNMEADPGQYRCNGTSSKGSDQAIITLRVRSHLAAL
Procedure: as §1, §2, §3

EC50 [1]: 0.6 nM
Mitochondrial membrane potential, fold decrease against Neg control IgG2a, MiaPaCa cells [2]: 2.5 fold decrease
ph-Akt, fold decrease against Neg control IgG2a, MiaPaCa cells [2]: 2 fold decrease
Kd [4]: 440 nM
koff [4]: 0.149 s⁻¹
kon [4]: 338000 M⁻¹ s⁻¹
Kd [5]: 1.5 nM
koff [5]: 0.00059 s⁻¹
kon [5]: 400000 M⁻¹ s⁻¹
B1: mouse anti-human BSG2 monoclonal antibody ML64-6A11-3A3 (antibody, mouse IgG2a, V domains shown)
VH: EVKLEESGGGLVQPGGSMKLSCVASGFTFSNFWMDWVRQSPEKGLEWIAGIRLKSYNYATHYAESVKGRFTISRDDSKSSVYLQMNNLRAEDTGIYYCTDWDGAYWGQGTLVTVSA
VL: DIVMTQSHKFMSTSVGDRVSITCKASQDVSTDVAWYQQKPGQSPKLLIYSASYRYTGVPDRFTGSGSGTDFTFTISSVQAEDLAVYYCQQHYSTPFTFGSGTKLEIK
notes: Hybridoma antibody, mouse IgG2a/kappa; also called 6A11-3A3 parental mouse antibody; Ab 3A3
CDC assay (% killing at 10 µg/ml Ab), MiaPaCa-2 pancreatic cancer cells [3]: 84 % killing
